Assay results from patent US20230251254A1, “METHOD FOR EVALUATING INTERACTION BETWEEN IMMOBILIZED SUBSTANCE IMMOBILIZED DIRECTLY OR INDIRECTLY ON SUBSTRATE AND PROXIMITY-DEPENDENT MODIFYING ENZYMELABELED SUBSTANCE TO BE ANALYZED” (CELLFREE SCIENCES CO.,LTD., priority 2020, published 2023).
Numbering of substitutions follows the chain as printed. Names and notes keep the numbering of the source. One block for each molecule: values may come before it.

How the values were obtained:
[1] = tested on: interaction between TP53 and MDM2 or between Iκβα and RelA; assay: Comparison of altered biotinylation enzymes by the method of Example 2 (Example 4); type: biochemical; conditions: for specificity / non-specific signal of labeling: luminescence detection; for labeling activity on introduction of Q141R mutation into AVVA mutant: compared with AVVA mutant without Q141R
Experimental: In this Example, various altered biotinylation enzymes were evaluated by the method used in Example 2.
Specifically, by a method similar to that for AirID (SEQ ID NO: 3) in Example 2, the interaction between TP53 and MDM2 or between Iκβα and RelA was analyzed using BioID (SEQ ID NO: 1), TurboID (SEQ ID NO: 2), an AirID-S118G mutant (SEQ ID NO: 12), an AWA-R118S mutant (SEQ ID NO: 13), an AVVA-R118G mutant (SEQ ID NO: 14), an AWA-R118S, Q141R mutant (SEQ ID NO: 15), and an AVVA-R118G, Q141R mutant (SEQ ID NO: 16).
The results in the figures were standardized in that the dispensation amount of the magnetic beads on the wells of the plate was 75 nL. An exposure time at the time of luminescence detection with LAS4000 (manufactured by GE Healthcare) was set to 3 minutes for TurboID, and 10 minutes for the protein of any other sequence identification number. A signal value was obtained from a measurement image through use of Array-Pro Analyzer™.

FLAG-GST-fused MDM2 [2] = target: T1, FLAG-GST-fused MDM2 (UniProt P23804 1-489); assay: proximity-biotinylation bead array, streptavidin-HRP luminescence; labeling 26°C 30 min; exposure 10 min
T1 construct: Immobilized on glutathione magnetic beads on the non-denatured protein array; Order of the parts follows the printed name FLAG-GST; also called FLAG-GST-fused immobilized substance (MDM2); not shown: FLAG tag protein; GST protein (glutathione S-transferase tag)

FLAG-GST-fused MDM2 [3] = target: T1, FLAG-GST-fused MDM2; assay: proximity-biotinylation bead array, streptavidin-HRP luminescence; labeling 26°C 1 h; exposure 10 min
FLAG-GST-fused RelA [4] = target: T2, FLAG-GST-fused RelA (UniProt Q04206 1-551); assay: as above
T2 construct: Immobilized on glutathione magnetic beads on the non-denatured protein array; Order of the parts follows the printed name FLAG-GST; also called FLAG-GST-fused immobilized substance (RelA); not shown: FLAG tag protein; GST protein (glutathione S-transferase tag)

FLAG-GST-fused MDM2 [5] = target: T1, FLAG-GST-fused MDM2; assay: proximity-biotinylation bead array, streptavidin-HRP luminescence; labeling 26°C 3 h; exposure 10 min
FLAG-GST-fused RelA [6] = target: T2, FLAG-GST-fused RelA; assay: as above
FLAG-GST-fused MDM2 [7] = target: T1, FLAG-GST-fused MDM2; assay: proximity-biotinylation bead array, streptavidin-HRP luminescence; labeling 26°C; exposure 10 min
FLAG-GST-fused RelA [8] = target: T2, FLAG-GST-fused RelA; assay: proximity-biotinylation bead array, streptavidin-HRP luminescence; labeling 26°C 30 min; exposure 10 min

T2 sequence (Q04206 other isoform, or with tags, fused parts or gaps): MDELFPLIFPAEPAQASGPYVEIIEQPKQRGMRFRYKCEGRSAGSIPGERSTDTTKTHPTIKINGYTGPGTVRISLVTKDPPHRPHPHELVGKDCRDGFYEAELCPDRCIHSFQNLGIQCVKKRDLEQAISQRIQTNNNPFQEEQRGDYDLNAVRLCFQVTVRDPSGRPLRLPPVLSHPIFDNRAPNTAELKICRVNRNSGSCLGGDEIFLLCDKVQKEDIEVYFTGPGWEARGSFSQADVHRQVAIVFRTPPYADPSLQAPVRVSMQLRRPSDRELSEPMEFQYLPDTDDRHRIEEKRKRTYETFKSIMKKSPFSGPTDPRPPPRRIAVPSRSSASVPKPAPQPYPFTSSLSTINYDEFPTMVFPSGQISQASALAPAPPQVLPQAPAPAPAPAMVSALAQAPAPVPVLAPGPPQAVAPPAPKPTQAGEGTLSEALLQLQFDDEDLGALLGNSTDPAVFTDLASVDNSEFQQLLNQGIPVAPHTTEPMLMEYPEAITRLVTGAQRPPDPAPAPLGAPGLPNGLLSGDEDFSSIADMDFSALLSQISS
T1 sequence (P23804 whole entry, the tested form may be a part): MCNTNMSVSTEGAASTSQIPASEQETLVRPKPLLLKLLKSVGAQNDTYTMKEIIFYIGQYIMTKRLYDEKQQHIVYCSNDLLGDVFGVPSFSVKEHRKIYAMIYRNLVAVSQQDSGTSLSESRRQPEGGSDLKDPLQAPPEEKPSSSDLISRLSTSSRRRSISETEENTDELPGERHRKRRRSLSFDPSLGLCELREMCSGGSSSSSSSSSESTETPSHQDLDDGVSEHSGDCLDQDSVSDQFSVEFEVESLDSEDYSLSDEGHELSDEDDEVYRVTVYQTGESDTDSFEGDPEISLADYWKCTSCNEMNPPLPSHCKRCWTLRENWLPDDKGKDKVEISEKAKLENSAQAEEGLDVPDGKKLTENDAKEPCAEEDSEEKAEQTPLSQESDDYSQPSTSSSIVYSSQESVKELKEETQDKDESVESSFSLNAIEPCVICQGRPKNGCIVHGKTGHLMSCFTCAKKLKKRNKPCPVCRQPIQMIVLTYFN

B2: AVVA-R118S mutant-fused Iκβα (other)
fusion protein: MSEQWSRKREILALLSSGHFVSGEELATQLGISRTAVSKHIAALEEYGVDIYSVKGKGYKLANPISLIDESKLKSAINNRCFYFDEIPSTNGFMLKHAEELKSGDICVAEYQSAGRGSRGRTWVSPYGCHLYFSLYWRFPQGMAQAMGLSLVVACSLVKVLKSFGVDGVGVKWPNDIYLNHKKLAGVLIEMSGQADSECHLVIGIGINMAMSEQQGKKIDQPWSDLSSLTSMPDKTELLIALQKQLKQDLELFEREGLKAFQPRWQEADLFYGKQIKLLMGENQVEGICRGIDEQGAVLLETDDGIQAFIGGEISLRAAMFQAAERPQEWAMEGPRDGLKKERLLDDRHDSGLDSMKDEEYEQMVKELQEIRLEPQEVPRSSEPWKQQLTEDGDSFLHLAIIHEEKALTMEVIRQVKGDLAFLNFQNNLQQTPLHLAVITNQPEIAEALLGAGCDPELRDFRGNTPLHLACEQGCLASVGVLTQSCTTPHLHSILKATNYNGHTCLHLASIHGYLGIVELLVSLGADVNAQEPCNGRTALHLAVDLQNPDLVSLLLKCGADVNRVTYQGYSPYQLTWGRPSTRIQQQLGQLTLENLQMLPESEDEESYDTESEFTEFTEDELPYDDCVFGGQRLTL
signal value (FLAG-GST-fused MDM2 [2]): 320 | signal value (FLAG-GST-fused MDM2 [3]): 310 | signal value (FLAG-GST-fused RelA [4]): 11100 | signal value (FLAG-GST-fused MDM2 [5]): 330 | signal value (FLAG-GST-fused RelA [6]): 50000 | binding result (FLAG-GST-fused MDM2 [7]): no binding

B3: AVVA-R118G mutant-fused Iκβα (other)
fusion protein: B2 fusion protein with S118G
signal value (FLAG-GST-fused MDM2 [2]): 140 | signal value (FLAG-GST-fused RelA [8]): 6900 | signal value (FLAG-GST-fused MDM2 [3]): 230 | signal value (FLAG-GST-fused MDM2 [5]): 310 | signal value (FLAG-GST-fused RelA [6]): 39400 | binding result (FLAG-GST-fused MDM2 [7]): no binding

B4: AVVA-R118G,Q141R mutant-fused Iκβα (other)
fusion protein: B2 fusion protein with S118G, Q141R
signal value (FLAG-GST-fused MDM2 [2]): 550 | signal value (FLAG-GST-fused MDM2 [3]): 280 | signal value (FLAG-GST-fused RelA [4]): 10100 | signal value (FLAG-GST-fused MDM2 [5]): 430 | signal value (FLAG-GST-fused RelA [6]): > 65000 | binding result (FLAG-GST-fused MDM2 [7]): no binding

B7: AVVA-R118G mutant: proximity-dependent biotin ligase, SEQ ID NO: 14 (protein)
chain: MSEQWSRKREILALLSSGHFVSGEELATQLGISRTAVSKHIAALEEYGVDIYSVKGKGYKLANPISLIDESKLKSAINNRCFYFDEIPSTNGFMLKHAEELKSGDICVAEYQSAGRGGRGRTWVSPYGCHLYFSLYWRFPQGMAQAMGLSLVVACSLVKVLKSFGVDGVGVKWPNDIYLNHKKLAGVLIEMSGQADSECHLVIGIGINMAMSEQQGKKIDQPWSDLSSLTSMPDKTELLIALQKQLKQDLELFEREGLKAFQPRWQEADLFYGKQIKLLMGENQVEGICRGIDEQGAVLLETDDGIQAFIGGEISLRAA
modifications: AVVA-R118G
specificity / non-specific signal of labeling ([1]; 75 nL magnetic beads): extremely high specificity

B8: AVVA-R118G, Q141R mutant: proximity-dependent biotin ligase, SEQ ID NO: 16 (protein)
chain: B7 chain with Q141R
modifications: AVVA-R118G,Q141R
specificity / non-specific signal of labeling ([1]; 75 nL magnetic beads): extremely high specificity | labeling activity on introduction of Q141R mutation into AVVA mutant [1]: enhances its labeling activity

The next lines start with results.

specificity / non-specific signal of labeling ([1]; 75 nL magnetic beads): low non-specificity
Molecule: BioID: proximity-dependent biotin ligase, SEQ ID NO: 1 [reference compound]
biotin modification activity ([1]; compared with the other enzymes): lower biotin modification activity than the other enzymes

signal intensity ([1]; 75 nL magnetic beads, exposure 3 minutes for TurboID): high signal intensity
B1: TurboID: proximity-dependent biotin ligase, SEQ ID NO: 2 (protein)
chain: MKDNTVPLKLIALLANGEFHSGEQLGETLGMSRAAINKHIQTLRDWGVDVFTVPGKGYSLPEPIPLLNAKQILGQLDGGSVAVLPVVDSTNQYLLDRIGELKSGDACIAEYQQAGRGSRGRKWFSPFGANLYLSMFWRLKRGPAAAIGLGPVIGIVMAEALRKLGADKVRVKWPNDLYLQDRKLAGILVELAGITGDAAQIVIGAGINVAMRRVEESVVNQGWITLQEAGINLDRNTLAATLIRELRAALELFEQEGLAPYLPRWEKLDNFINRPVKLIIGDKEIFGISRGIDKQGALLLEQDGVIKPWMGGEISLRSAEK
modifications: TurboID
specificity / non-specific signal of labeling ([1]; 75 nL magnetic beads): a certain signal (non-specific) is found even for an interaction that should be negative

specificity / non-specific signal of labeling ([1]; 75 nL magnetic beads): extremely high specificity | labeling activity on introduction of Q141R mutation into AVVA mutant [1]: enhances its labeling activity
B5: AWA-R118S, Q141R mutant: proximity-dependent biotin ligase, SEQ ID NO: 15 (protein)
chain: B7 chain with G118S, Q141R
modifications: AVVA-R118S,Q141R

specificity / non-specific signal of labeling ([1]; 75 nL magnetic beads): extremely high specificity
B6: AWA-R118S mutant: proximity-dependent biotin ligase, SEQ ID NO: 13 (protein)
chain: B7 chain with G118S
modifications: AVVA-R118S

signal value (FLAG-GST-fused MDM2 [2]): 240 | signal value (FLAG-GST-fused RelA [8]): 9570 | signal value (FLAG-GST-fused MDM2 [3]): 220 | signal value (FLAG-GST-fused RelA [4]): 10200 | signal value (FLAG-GST-fused MDM2 [5]): 370 | signal value (FLAG-GST-fused RelA [6]): 51400 | binding result (FLAG-GST-fused MDM2 [7]): no binding
B9: AirID-S118G mutant-fused Iκβα (other)
fusion protein: MKDNTVPLTLISILADGEFHSGEQLGEQLGMSRAAINKHIKTLRDWGVDVFRVQGKGYCLPEPIQLLDEEKIRQQLDEGSVTVLPVIDSTNQYLLDRLDELTSGDVCIAEYQQAGRGGRGRKWFSPFGANLYLSMYWRLEQGPAAAMGLSLVIGIVMAETLQKLGADGVRVKWPNDLYLNDRKLAGILVEMTGKTGDAAHIVIGAGINLSMREPETDEVDQSWINLQEAGITIDRNQLAARLIKDLRSALRQFEQQGLAPFLSRWEALDNFINRPVKLIIGDREIHGIARGINEQGALLLEQDGVIKPWIGGEISLRSAMFQAAERPQEWAMEGPRDGLKKERLLDDRHDSGLDSMKDEEYEQMVKELQEIRLEPQEVPRSSEPWKQQLTEDGDSFLHLAIIHEEKALTMEVIRQVKGDLAFLNFQNNLQQTPLHLAVITNQPEIAEALLGAGCDPELRDFRGNTPLHLACEQGCLASVGVLTQSCTTPHLHSILKATNYNGHTCLHLASIHGYLGIVELLVSLGADVNAQEPCNGRTALHLAVDLQNPDLVSLLLKCGADVNRVTYQGYSPYQLTWGRPSTRIQQQLGQLTLENLQMLPESEDEESYDTESEFTEFTEDELPYDDCVFGGQRLTL

specificity / non-specific signal of labeling ([1]; 75 nL magnetic beads): extremely high specificity
B10: AirID: proximity-dependent biotin ligase, SEQ ID NO: 3 (protein)
chain: MKDNTVPLTLISILADGEFHSGEQLGEQLGMSRAAINKHIKTLRDWGVDVFRVQGKGYCLPEPIQLLDEEKIRQQLDEGSVTVLPVIDSTNQYLLDRLDELTSGDVCIAEYQQAGRGSRGRKWFSPFGANLYLSMYWRLEQGPAAAMGLSLVIGIVMAETLQKLGADGVRVKWPNDLYLNDRKLAGILVEMTGKTGDAAHIVIGAGINLSMREPETDEVDQSWINLQEAGITIDRNQLAARLIKDLRSALRQFEQQGLAPFLSRWEALDNFINRPVKLIIGDREIHGIARGINEQGALLLEQDGVIKPWIGGEISLRSA
modifications: AirID

specificity / non-specific signal of labeling ([1]; 75 nL magnetic beads): extremely high specificity
B11: AirID-S118G mutant: proximity-dependent biotin ligase, SEQ ID NO: 12 (protein)
chain: B10 chain with S118G
modifications: AirID_S118G
